Where two headings read alike, the source gives them in different places.
T1: CD25, CD122 and CD132 receptor molecules on HEK-Blue IL-2 cells (UniProt P01589 22-272; P14784 27-551; P31785 23-369, limits assumed)
T1 sequence (looked up) 1: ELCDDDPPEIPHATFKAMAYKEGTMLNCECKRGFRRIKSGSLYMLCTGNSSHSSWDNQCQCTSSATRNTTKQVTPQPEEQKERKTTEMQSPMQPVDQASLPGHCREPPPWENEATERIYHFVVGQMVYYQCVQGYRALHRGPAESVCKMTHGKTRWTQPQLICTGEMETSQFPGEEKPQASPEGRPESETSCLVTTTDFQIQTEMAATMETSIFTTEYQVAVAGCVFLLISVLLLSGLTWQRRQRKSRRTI
T1 sequence (looked up) 2: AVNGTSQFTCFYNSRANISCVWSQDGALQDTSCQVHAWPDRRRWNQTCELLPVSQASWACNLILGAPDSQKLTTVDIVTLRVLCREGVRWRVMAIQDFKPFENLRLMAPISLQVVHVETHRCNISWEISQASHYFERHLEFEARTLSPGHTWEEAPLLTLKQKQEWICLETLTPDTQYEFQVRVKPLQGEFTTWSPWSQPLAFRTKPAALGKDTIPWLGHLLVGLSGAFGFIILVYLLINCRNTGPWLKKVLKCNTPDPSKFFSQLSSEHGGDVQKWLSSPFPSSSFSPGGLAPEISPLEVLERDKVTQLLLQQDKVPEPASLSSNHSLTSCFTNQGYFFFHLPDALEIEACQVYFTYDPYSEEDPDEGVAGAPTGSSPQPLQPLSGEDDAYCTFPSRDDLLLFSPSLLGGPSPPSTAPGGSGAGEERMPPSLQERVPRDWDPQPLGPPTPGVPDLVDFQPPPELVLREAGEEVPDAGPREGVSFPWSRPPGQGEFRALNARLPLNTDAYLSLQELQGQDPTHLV
T1 sequence (looked up) 3: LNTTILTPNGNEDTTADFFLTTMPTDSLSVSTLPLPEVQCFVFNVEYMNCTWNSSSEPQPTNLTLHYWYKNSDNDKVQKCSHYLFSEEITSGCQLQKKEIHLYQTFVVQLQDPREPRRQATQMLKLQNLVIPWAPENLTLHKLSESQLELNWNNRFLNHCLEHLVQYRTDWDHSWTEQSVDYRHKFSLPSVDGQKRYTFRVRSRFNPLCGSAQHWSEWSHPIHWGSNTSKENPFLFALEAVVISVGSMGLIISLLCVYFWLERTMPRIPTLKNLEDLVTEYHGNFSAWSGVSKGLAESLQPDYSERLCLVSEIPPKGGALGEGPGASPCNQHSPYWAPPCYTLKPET


How the values were obtained:
[1] = biological target: T1, CD25, CD122 and CD132 receptor …; test: cell-based or functional assay
[2] = biological target: T1, CD25, CD122 and CD132 receptor …; test: cell-based or functional assay; remark: listed apart in the source

| EC50 (pM), STAT5-regulated SEAP reporter in HEK-Blue IL-2 cells [1] [pM] | EC50 (pM), STAT5-regulated SEAP reporter in HEK-Blue IL-2 cells [2] [pM] | Binder |
| --- | --- | --- |
| 10.8 | – | Polypeptide dimer 1 (SEQ ID NO: 31 + SEQ ID NO: 32) (Fc fusion) chain 1: HHHHHHTCPPCPAPEAAGGPSVFLFPPKPKDTLMISRTPEVTCVVVDVSHEDPEVKFNWYVDGVEVHNAKTKPREEQYNSTYRVVSVLTVLHQDWLNGKEYKCKVSNKALGAPIEKTISKAKGQPREPQVYTLPPCREEMTKNQVSLWCLVKGFYPSDIAVEWESNGQPENNYKTTPPVLDSDGSFFLYSKLTVDKSRWQQGNVFSCSVMHEALHNHYTQKSLSLSPGGGGGSGGGGSNFHLRPRDLISNINVIVLELKGSETTFMCEYADETATIVEFLNRWITFSQSIISTLTGSGPASSSTKKTQLQLEHLLLDLQMILNGINNYKNPKLTRMLTFKFYMPKKATELKHLQCLEEELKPLEEVLNLAQSK chain 2: HTCPPCPAPEAAGGPSVFLFPPKPKDTLMISRTPEVTCVVVDVSHEDPEVKFNWYVDGVEVHNAKTKPREEQYNSTYRVVSVLTVLHQDWLNGKEYKCKVSNKALGAPIEKTISKAKGQPREPQVCTLPPSREEMTKNQVSLSCAVKGFYPSDIAVEWESNGQPENNYKTTPPVLDSDGSFFLVSKLTVDKSRWQQGNVFSCSVMHEALHNHYTQKSLSLSPGGGGGSGGGGSELCDDDPPEIPHATFKAMAYKEGTMLNCECKRGFRRIKSGSLYMLCTGNSSHSSWDNQCQCTSSATRNTTKQVTPQPEEQKERKTTEMQSPMQPVDQASLPGHCREPPPWENEATERIYHFVVGQMVYYQCVQGYRALHRGPAESVCKMTHGKTRWTQPQLICTGDYKDDDDK |
| – | 10.2 | Polypeptide dimer 2 (SEQ ID NO: 33 + SEQ ID NO: 34) (Fc fusion) chain 1: HHHHHHTCPPCPAPEAAGGPSVFLFPPKPKDTLMISRTPEVTCVVVDVSHEDPEVKFNWYVDGVEVHNAKTKPREEQYNSTYRVVSVLTVLHQDWLNGKEYKCKVSNKALGAPIEKTISKAKGQPREPQVCTLPPSREEMTKNQVSLSCAVKGFYPSDIAVEWESNGQPENNYKTTPPVLDSDGSFFLVSKLTVDKSRWQQGNVFSCSVMHEALHNHYTQKSLSLSPGGGGGSGGGGSNFHLRPRDLISNINVIVLELKGSETTFMCEYADETATIVEFLNRWITFSQSIISTLTGSGPASSSTKKTQLQLEHLLLDLQMILNGINNYKNPKLTRMLTFKFYMPKKATELKHLQCLEEELKPLEEVLNLAQSK chain 2: HTCPPCPAPEAAGGPSVFLFPPKPKDTLMISRTPEVTCVVVDVSHEDPEVKFNWYVDGVEVHNAKTKPREEQYNSTYRVVSVLTVLHQDWLNGKEYKCKVSNKALGAPIEKTISKAKGQPREPQVYTLPPCREEMTKNQVSLWCLVKGFYPSDIAVEWESNGQPENNYKTTPPVLDSDGSFFLYSKLTVDKSRWQQGNVFSCSVMHEALHNHYTQKSLSLSPGGGGGSGGGGSELCDDDPPEIPHATFKAMAYKEGTMLNCECKRGFRRIKSGSLYMLCTGNSSHSSWDNQCQCTSSATRNTTKQVTPQPEEQKERKTTEMQSPMQPVDQASLPGHCREPPPWENEATERIYHFVVGQMVYYQCVQGYRALHRGPAESVCKMTHGKTRWTQPQLICTGDYKDDDDK |

Source: patent US20230322882A1 (NANJING NORMAL UNIVERSITY, published 2023)
